Source: the nanobody polyreactivity screen of Harvey et al. (2022)

Experiment: yeast display, Sf9 membrane polyspecificity reagent, FACS + sequencing; frameworks hold sequencing errors
Method in brief: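 Nanobodies from a synthetic yeast display library (Saccharomyces cerevisiae BJ5465), induced 36–48 hours with galactose, were stained 1 hour at 4 °C with 10% biotinylated, detergent-solubilized Sf9 membrane reagent, enriched on streptavidin microbeads, then FACS-sorted. Anti-HA (expression) and streptavidin (reagent binding) fluorescence set low and high (top ~1%) gates. Polyreactivity labels come from the gate of origin. Genes were colony-PCR amplified, MiSeq 2 × 250 sequenced and filtered by CDR length.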

Row | Sequence | polyreactivity (PSR sort gate)
1 | QVQLVESGGGLVQAGGSLRVSCAASGSTFYIYAMGWSRQAPGKERELVARISGSGGSTYYADSVKGRFTISRDYAKNTVYLLMNSLKPEDTAVYYCAADDIYKYYQYYAFPYSRYDYWGQGTQLTVSS | low polyreactivity
2 | QVQLVESGGGLVQAGGSLRVSCAASGYTFLRYAMGWYRQAPGKERELVAAISWSTGSTYYADSVKGRFTISRDNAKNTVYLQMNSLKPEDTAVYYCAAAGRHSGGRFYYWGQGTQVTVSS | high polyreactivity
3 | QVQLVESGGGLVQAGGSLRVSCAASVRTLFGNALGWYRQAPGKERELLAAISFSGGRTEYADSVKGRFTISRDNAMNTVYLQMNSLKPEDTAVYYCAARTYSAPRNRYYYWGQGTQVTVSS | high polyreactivity
4 | QVQLVESGGGLVQAGGSLRVSCASSGRIFVYDMGWYRQAPGKERELVAAITRGGSTKYADSVKGRFTISRDNAKNTVFLQMNSLKPADTAVYYCAADTRRYRFYYWGQGTQVSVSS | high polyreactivity
5 | QVQLVESGGGLVQAGGSLRVSCASSGSTFVSYAMVWYRQAPGKERELVASISGSDGRTYYADSVKGRFTISRDNAKNTVYLQMKSLNPEDTAVYYCAKRYWRHPVFYLYDYWVQGTQVTVSS | high polyreactivity
6 | QVQLVESGGGLVQAGGSLRVSSAASGRIFSIYAMGWYRQAPGKERELVAAISFRGTSTYADSVKGRFTISRDNAKNTVYLQMNSLKPEDTAVYFCAVSGFDVLWPSLGGELDYWGQGTQVTVSS | low polyreactivity
7 | QVQLVESGGGLVQAGGSLRVSSAASGSIFDYYEMGWYRQAPGKEREMVAAINISGGDTYYADSVKGRFTISRDNAKNTVYLQMNSLNPEDTAVYYCAADWVTWWFSRVGWDYGYWGQGTQVTVSS | low polyreactivity
8 | QVQLVESGGGLVQAGGSLRYSCAASGSIFYWYAMGWDRQAPGKERELVAGITYSGGNTYYADSVKGRFTISRDNAKNTVYLQMNSLKPEDTAVYDCAATRGYWRKWRMDYWGQGTQVTVSS | high polyreactivity
9 | QVQLVESGGGLVQAGGSLSISCAASGITLGHNAMGWYRQAPGKDRELVAAISWSGDRTFYADSVKGRFTISRDNAKNTVYLQMNSLKPEDTAVYYCNAEIGWHNEGRLSTYDYWGQGTQVTVSS | low polyreactivity
10 | QVQLVESGGGLVQAGGSLSLICAASGRTFGPNTMGWYRQAPGKERELVAAITGSGGSTYYADSVKGRFTISRDNAKNTVYLQMNSLKPEDTAVYYCAKSVRYPASDYWGQGTQVTVSS | low polyreactivity
11 | QVQLVESGGGLVQAGGSLSLSCAASGFIFGAYAMGWYRQAPRKERELVADITQNSGSTYYADSVKGRFTISRDNAKYTVYLQMNSVKPEVTAVYFCNADWETADDYWGQGTQVTVSS | low polyreactivity
12 | QVQLVESGGGLVQAGGSLSLSCAASGFIFGGYAMGWYRQAPGKERELVAAITWSGGNTYYADSVKGRFTISRDNAKNTVYLQMNSLKPEATAVYYCAADYWTKYVYWGQGTQVTVSS | low polyreactivity
13 | QVQLVESGGGLVQAGGSLSLSCAASGFIFLGNAMGWYRQAPGKEREVVAAISSGGSTYADSVKGRFTISRDHAKNTVYLQMNSLKPEDTAVYYCAVDRAFRAQNYHEYDYWGQGSQVTVSS | low polyreactivity
14 | QVQLVESGGGLVQAGGSLSLSCAASGFIFYRYAMGWYRQAPGKERELVAGISSRGGSTYYADSVKGRFTISRDNAKNTVYLQMNSLKPEDTAVYYCAKRPLTSNASQGDYWGQGTQVTVSS | high polyreactivity
15 | QVQLVESGGGLVQAGGSLSLSCAASGFTFDYYAMGWYRQAPGKERELVAAISTSGGSTYYADSVKGRFTISRDNAMNTVYLQMNSLKPEDTAVYYCNVVFYEYSSVSYDYWGQGTQVTVSS | high polyreactivity
16 | QVQLVESGGGLVQAGGSLSLSCAASGGIFARNVMGWYRQAPGKERELVADISGSGGSTYYADSVKGRFTISRDNAKNTVYLQMNSLKPEDTAVYYCAARTPGVSVYKDGYWGQGTQVTVSS | low polyreactivity
17 | QVQLVESGGGLVQAGGSLSLSCAASGIFKYYMGWYRQAPGKERELVAGITKRGGSTYYADSVKGRFTISRDNAKNTVYLQKNSLKPEDTAVYYCNAVGPKRYDYWGQGTQVTVSS | high polyreactivity
18 | QVQLVESGGGLVQAGGSLSLSCAASGIIFGSYAMGWYRQAPGKESELVAAITSRGSSTRYADSVKGRFTISRDNAKNTVYLQMNSLKPEDTAVYYCATKVVVAHLPGYYYWGQGTQVTVSS | high polyreactivity
19 | QVQLVESGGGLVQAGGSLSLSCAASGIIFYDYAMGWYRQAPGKERELVAVISRSGGSTYYADSVKGRFTISRDNAKNTVYLQMNSLNPEDTAVYYCARAYSLRVVTGDYWGQGTQVTVSS | high polyreactivity
20 | QVQLVESGGGLVQAGGSLSLSCAASGITFVFYTMGWYRQAPGKERELVAAISRSGASTYYADSVKGRFTISRDNAKNTVYLQMNSLKPQDTAVDYCAADRGYRFRMDYWGQGTQVTVSS | high polyreactivity
21 | QVQLVESGGGLVQAGGSLSLSCAASGLILSDNAMGWYRQAPGKEREFVASITSSGGSTHYADSVKGRFTISRDNAKNTVYFQMNSLKPEDTAVYYCAKDYYEGDSYPYPGYEYWGQGTQVTVSS | low polyreactivity
22 | QVQLVESGGGLVQAGGSLSLSCAASGLTFRSYTMGWYRQAPGKERELVAAISSGGSTYYADSVKGRFTISRDNAKNTVYLQMNSLKPEDTAVYYCAAPRGHGKYYSWGQGTQVTVSS | high polyreactivity

Row | Sequence | polyreactivity (PSR sort gate)
23 | QVQLVESGGGLVQAGGSLSLSCAASGNTLYNYPMGSYRPAPGKERELVAAISLSGGSTYYADSVKGRFTISRDNAKNTVYLQMNSLKRVDTAVYYCDADIFYYSSSYGYWGQGTQVTVSS | low polyreactivity
24 | QVQLVESGGGLVQAGGSLSLSCAASGPTFGEYVMGWYRQAPGKERELVASISRRGGSTYYADSVKGRFTISRDNAKNTVYLQMNSLKPEDTAVYYCAKYRTQWSKNLYPYGFDYWGQGTQVTVSS | low polyreactivity
25 | QVQLVESGGGLVQAGGSLSLSCAASGRIFAYYAMGWYRQAPGKERELVAGISQRGSRTYYADSVKGRFTISRDNGKNTVYLQMNSLKPEDTAVYYCAARDRRSVTMDYWGQGTQVTVSS | high polyreactivity
26 | QVQLVESGGGLVQAGGSLSLSCAASGRIFGYYAMGGYRQAPGKERELVAAITTGGNTYYAESVKGRFTISRDNAKNTVNLQMNSLKPEDTAVYYCNKRSYAYYSYAVFTWVDYWGQGTQVTVSS | low polyreactivity
27 | QVQLVESGGGLVQAGGSLSLSCAASGRIFNRNAMGWYRQAPGKERELVASISSGGRTNYADSVKGRFTISRDNAKNTFYLQMNSLKPEDTAVYYCAAKSPRILLDYWGQGTQVTVSS | low polyreactivity
28 | QVQLVESGGGLVQAGGSLSLSCAASGRIFRRYAMGWYRQAPWKERELVAAITWSGGSTYADSVKGRFTISRDNAKNTVYLQMNSLKPEDTAVYYCAARYVTTKGSFVVGYGYWGQGTQVTVSS | high polyreactivity
29 | QVQLVESGGGLVQAGGSLSLSCAASGRIFSLNVMGWYSQARGKERELVATIRGRGTSTYYADSVKGRFTISRDTAKNTVYLQMNSLKPEDTAVFYCAARGHGAYGYWGQGTQVTVSS | low polyreactivity
30 | QVQLVESGGGLVQAGGSLSLSCAASGRIFSYNDMGWYRQAPGKERELVAAITSNDGSTYYADSVKGRFTISRDNAKNTVYLQMNSLKPVDSAVSYCTADVLFLSSYGYDYWGQGTQVTVSS | low polyreactivity
31 | QVQLVESGGGLVQAGGSLSLSCAASGRIFYGYVMVWYRQAPGKERELVAAITWSGSRTYYADSVKGRFTISRDNAKNTVFLQMNSLKPADTAVYYCAARIPSDGYYYWGQGTQVTVSS | high polyreactivity
32 | QVQLVESGGGLVQAGGSLSLSCAASGRIINWYAMGWYRQATGKERELVARISSGDITSYADSVKGRFTISRDNAKNTVYLQMYSLKPEDTAVSYCAARQWFLYDYWGQGTQVTVSS | low polyreactivity
33 | QVQLVESGGGLVQAGGSLSLSCAASGRTFASNAIGWYRQAPGKERELVAAISSAGGTNYADSVKGRFTISRDNAKNTVYLQMISLKPEDTAVYYCAAASPYYSYHRYIYYYWGQGTQVTVSS | high polyreactivity
34 | QVQLVESGGGLVQAGGSLSLSCAASGRTFIRNAMGWYRQAPRKEREVVAAINSCGITNYADSVNGRFTISRDNAKNTVDLQMNSLKPEDTAVYYCANTFQYYWFSLYDYWGQGTQVTVSS | low polyreactivity
35 | QVQLVESGGGLVQAGGSLSLSCAASGRTFNNNAMGCYIPAPGKERELVAAITSGASTNYADSVKGRFTISRDNAKNTVYLQMNSLKPEDTAVYYCAKATYPHEYDYWGQGTQVTVSS | low polyreactivity
36 | QVQLVESGGGLVQAGGSLSLSCAASGRTFRVYAMGSYRQSPRKERELVAAITNGGSTNYADSVKGRFTISRDNAKNTVYLQMNSLKPEDTAVYYCARVHRSYVAAQGVYVGNYYWGQGTQVTVSS | high polyreactivity
37 | QVQLVESGGGLVQAGGSLSLSCAASGRTFRYYAMGWYRQAPGKERELVAAMRTRGASTYYADSVKGRFTISRDNAKNSVYLQMNSLKPEVSAVYYCAASRSGHGIIDYDSWGK | low polyreactivity
38 | QVQLVESGGGLVQAGGSLSLSCAASGRTFSGNAMGWYRQAPGKERELVAAINWRGGRTYYADSVKGRFTISRDNAKNTVYLQMNSLKPEDTAVYYCAAVYVFHRYIYSLYDYWGQGTQVTVSS | high polyreactivity
39 | QVQLVESGGGLVQAGGSLSLSCAASGSIFAAYTMGWYRQAPGQDRELVAAITSGGTYADSVKGRFTISRDNAKYSVYLQKNSLQPEVTAVYYCYAGNNVVVDYDYWGQGTQVTVSS | low polyreactivity
40 | QVQLVESGGGLVQAGGSLSLSCAASGSIFAGNAMGWYRQAPGKERELVAAIRWSTGSTYYADSVKGRFTISRDNAKNTVYLQMNSQKPEDTAVYYCAATDTTFYGIVRYEFWGQGTQVTVSS | low polyreactivity
41 | QVQLVESGGGLVQAGGSLSLSCAASGSIFASYAMGWYRQAPGKERELVAAITSDGNTYYADSVKGRFTISRDNAKNTVYLQMNSLKPEDTAVYYCAADRYSTYPYAKGTEFYYWGQGTQVTVSS | low polyreactivity
42 | QVQLVESGGGLVQAGGSLSLSCAASGSIFFNNAMGWYRQAPGKERELVAAITWRDGSTNYADSVKGRFTISRDIAKNTVYLQMNSLKPEDTAVYYCNKVKEFGNVWFLPKYNYWGQGTQVTVSS | low polyreactivity
43 | QVQLVESGGGLVQAGGSLSLSCAASGSIFGENAKGWYRQAPGKERELVAAITWGGTSTYYADSVKGRFTISRDNAKNTVYLQMNSLKPEDTAVYYCNTPRYVRRQGVKRYDYWGQGTQVTVSS | low polyreactivity
